Results taken from the supplement of paper PMC10724198.
± gives the standard deviation of the averaged measurements.

Tested on: Saccharomyces cerevisiae
Assay: protein stability index of tFT-peptide fusion (C-terminal peptide) (PSI (0-1 scale)); higher = more stable (slower turnover)
Conditions: temperature: 30 C
Description: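 MPS profiling in S. cerevisiae of the yeast C-terminome library: the last 12 aa of each annotated ORF are fused to the C-terminus of a sfGFP-mCherry timer, after a GGGS linker. Cells are FACS-sorted into 8 mCherry/sfGFP bins and deep-sequenced. PSI runs from 0 (unstable) to 1 (stable); wild type and das1Δ backgrounds, two technical replicates each.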

[1] = genetic background: das1 deletion

Sequence	protein stability index [1]	protein stability index (genetic background: wild type)
KSARSWVRSGRL [YPR053C C-terminal 12 aa]	0.80266 ± 0.00042	0.77 ± 0.013
SESNDGESSDSD [RPA43 C-terminal 12 aa]	0.656 ± 0.021	0.7176 ± 0.0024
YIWKYYADSLFE [CSM2 C-terminal 12 aa]	0.736 ± 0.013	0.685 ± 0.043
KSAKTAKASQEL [HTA2 C-terminal 12 aa]	0.705 ± 0.017	0.673 ± 0.023
PFLEKLTLSGLL [CDC45 C-terminal 12 aa]	0.714 ± 0.0059	0.694 ± 0.0088
PQFKYRADFLII [APE3 C-terminal 12 aa]	0.664 ± 0.011	0.676 ± 0.037
RAKTMNRSQSHV [PFK26 C-terminal 12 aa]	0.697 ± 0.0089	0.7255 ± 0.0013
TKARTLGEGSVN [YDR476C C-terminal 12 aa]	0.686 ± 0.032	0.674 ± 0.021
GLQKKNIKIHGF [SUI1 C-terminal 12 aa]	0.699 ± 0.024	0.684 ± 0.074
VNELVELMTQSA [SEC18 C-terminal 12 aa]	0.675 ± 0.015	0.695 ± 0.014
DLEFEEQREPKL [NVJ2 C-terminal 12 aa]	0.719 ± 0.006	0.668 ± 0.011
YIFQTYVSVDSK [YAR047C C-terminal 12 aa]	0.62 ± 0.036	0.58 ± 0.015
SCGCGSSFDIEN [ISA2 C-terminal 12 aa]	0.704 ± 0.015	0.632 ± 0.0093
EEGEVVEEEAEK [HSP78 C-terminal 12 aa]	0.678 ± 0.022	0.6852 ± 0.0044
AKELISAIFFGE [TAF6 C-terminal 12 aa]	0.698 ± 0.057	0.6614 ± 0.0044
ESFVECFESFIE [PBI1 C-terminal 12 aa]	0.714 ± 0.03	0.682 ± 0.033
TVFETLTLHSAN [JSN1 C-terminal 12 aa]	0.725 ± 0.024	0.68218 ± 0.00033
PSENFATKAKLP [YDR187C C-terminal 12 aa]	0.7507 ± 0.0029	0.71 ± 0.025
ALSKDGIYTITN [PAU13 C-terminal 12 aa]	0.706 ± 0.027	0.679 ± 0.014
YKKAATLISNIL [DNM1 C-terminal 12 aa]	0.71 ± 0.017	0.72 ± 0.074
CAAVEKGPILDA [THI74 C-terminal 12 aa]	0.691 ± 0.019	0.682 ± 0.021

Sequence	protein stability index [1]	protein stability index (genetic background: wild type)
LRFEEMNSDLVQ [ROG1 C-terminal 12 aa]	0.705 ± 0.0096	0.747 ± 0.12
LEHYSLSTFVCC [YAL045C C-terminal 12 aa]	0.326 ± 0.032	0.3476 ± 0.0029
QTLDSEYNTILQ [GAT2 C-terminal 12 aa]	0.704 ± 0.024	0.742 ± 0.073
HTSVKALQRMTW [CTH1 C-terminal 12 aa]	0.7271 ± 0.0051	0.6829 ± 0.0024
LTSYINVHLVYV [YNL285W C-terminal 12 aa]	0.301 ± 0.016	0.325 ± 0.0042
TNTVPATSASSK [RGC1 C-terminal 12 aa]	0.68862 ± 0.00043	0.701 ± 0.04
SPRLKENEHVTN [MPC54 C-terminal 12 aa]	0.693 ± 0.013	0.724 ± 0.072
QLAIALSLSEIN [UFO1 C-terminal 12 aa]	0.694 ± 0.011	0.714 ± 0.035
LQPDVPPSSGRS [KEX2 C-terminal 12 aa]	0.695 ± 0.033	0.703 ± 0.011
NSVDWIYSWGKN [MIC12 C-terminal 12 aa]	0.716 ± 0.03	0.74 ± 0.019
QAKFFYQDLMSL [YHL046W-A C-terminal 12 aa]	0.72 ± 0.038	0.739 ± 0.052
QLISTPIKDNEH [KIC1 C-terminal 12 aa]	0.693 ± 0.018	0.682 ± 0.031
GSVPANWNWSSF [PIB2 C-terminal 12 aa]	0.739 ± 0.03	0.699 ± 0.048
KAALDRVENALA [IML2 C-terminal 12 aa]	0.699 ± 0.02	0.676 ± 0.017
RPQYRRIAALEE [PSY3 C-terminal 12 aa]	0.695 ± 0.023	0.672 ± 0.015
SFKAYVGLPTTG [PIC2 C-terminal 12 aa]	0.706 ± 0.01	0.693 ± 0.009
ASFVEVNAEVFL [FRS1 C-terminal 12 aa]	0.7129 ± 0.0051	0.7111 ± 0.0032
SFTHQEQDTEMN [NAB2 C-terminal 12 aa]	0.708 ± 0.032	0.736 ± 0.019
DKAAPALKKVKM [SFL1 C-terminal 12 aa]	0.675 ± 0.026	0.71 ± 0.041
AVENQFFSQKKK [ACS2 C-terminal 12 aa]	0.707 ± 0.044	0.697 ± 0.034
FFSKKRPNIDSK [YOL037C C-terminal 12 aa]	0.696 ± 0.011	0.684 ± 0.058

Sequence	protein stability index [1]	protein stability index (genetic background: wild type)
LVKPKNWKKFRE [KRE2 C-terminal 12 aa]	0.686 ± 0.017	0.733 ± 0.022
PVHLQTVGLVDC [PIR5 C-terminal 12 aa]	0.623 ± 0.032	0.672 ± 0.058
LTEMSAKISFED [AAD10 C-terminal 12 aa]	0.717 ± 0.019	0.779 ± 0.011
QKTAQQKNCSIM [YNL234W C-terminal 12 aa]	0.746 ± 0.018	0.721 ± 0.019
KLSAPIFSILHS [APT2 C-terminal 12 aa]	0.721 ± 0.0083	0.504 ± 0.0051
KSLRSSFGKKLI [PHS1 C-terminal 12 aa]	0.706 ± 0.052	0.717 ± 0.046
MQHRGWSSLMSL [YJR146W C-terminal 12 aa]	0.7031 ± 0.0016	0.6548 ± 0.0047
DEMQDFLKKHAS [SWI6 C-terminal 12 aa]	0.7311 ± 0.0031	0.643 ± 0.033
VKFGLQMAYLQS [YMR007W C-terminal 12 aa]	0.7023 ± 0.005	0.6586 ± 0.0059
QLMYEQDDEEVP [HAP3 C-terminal 12 aa]	0.718 ± 0.015	0.64582 ± 0.00022
ESEYREQQQNPQ [SHQ1 C-terminal 12 aa]	0.688 ± 0.017	0.686 ± 0.085
IELWETFYQTNL [VPS5 C-terminal 12 aa]	0.745 ± 0.011	0.7177 ± 0.0056
LARTDVNFMPWF [TRA1 C-terminal 12 aa]	0.72 ± 0.0086	0.744 ± 0.031
MTSLDICALGIK [RVS161 C-terminal 12 aa]	0.689 ± 0.012	0.675 ± 0.046
RSKYGAKKPSKS [MRPS12 C-terminal 12 aa]	0.6815 ± 0.0025	0.6855 ± 0.0067
LSDDEEEEEEEE [RIX1 C-terminal 12 aa]	0.648 ± 0.048	0.645 ± 0.033
SPPLSTSPDSRR [YLR416C C-terminal 12 aa]	0.7198 ± 0.0012	0.713 ± 0.029
MFNASSDIFQRN [YML083C C-terminal 12 aa]	0.703 ± 0.016	0.7014 ± 0.0067
RLIFYPDEYEQL [PRE3 C-terminal 12 aa]	0.743 ± 0.012	0.736 ± 0.071
CPPTIEIGGGGH [MIR1 C-terminal 12 aa]	0.712 ± 0.0075	0.706 ± 0.0053
TPRLYTDRSRDF [RPB2 C-terminal 12 aa]	0.743 ± 0.0033	0.713 ± 0.013

Sequence	protein stability index [1]	protein stability index (genetic background: wild type)
SNNATHNCGNYF [YGR122W C-terminal 12 aa]	0.712 ± 0.049	0.764 ± 0.01
NTEQAYSQPFRY [NVJ1 C-terminal 12 aa]	0.702 ± 0.021	0.722 ± 0.016
KMGQSFNAAGKF [TIM10 C-terminal 12 aa]	0.692 ± 0.033	0.683 ± 0.0072
SFRSSHFYSLIA [YLR217W C-terminal 12 aa]	0.691 ± 0.012	0.331 ± 0.016
PENGSLFEFDDN [SNU66 C-terminal 12 aa]	0.6962 ± 0.005	0.6836 ± 0.0039
SSSNKSQRNGRY [AIR1 C-terminal 12 aa]	0.712 ± 0.011	0.68967 ± 0.00054
KRRNWRRTKMNI [RPL39 C-terminal 12 aa]	0.682 ± 0.017	0.705 ± 0.04
TDFENPNFRYTL [DAL5 C-terminal 12 aa]	0.756 ± 0.039	0.794 ± 0.12
KILGRYVVDTSK [ADH3 C-terminal 12 aa]	0.7177 ± 0.0055	0.6547 ± 0.0035
KDGFVLYSYGQK [SKP2 C-terminal 12 aa]	0.69 ± 0.021	0.738 ± 0.034
QESTLETTQKED [AFI1 C-terminal 12 aa]	0.703 ± 0.032	0.666 ± 0.018
KQSQRQVPHSIK [SPO21 C-terminal 12 aa]	0.7194 ± 0.0004	0.708 ± 0.011
KNKKNKKKGKKK [CHS5 C-terminal 12 aa]	0.694 ± 0.048	0.696 ± 0.019
KKPSSYVMVPRP [MRPL8 C-terminal 12 aa]	0.708 ± 0.011	0.6724 ± 0.002
CVNSASLNLKKD [MXR2 C-terminal 12 aa]	0.695 ± 0.023	0.682 ± 0.035
WSNNDDMEQNPW [YPR089W C-terminal 12 aa]	0.7236 ± 0.0055	0.713 ± 0.029
QLKLLNALDSVD [YDR537C C-terminal 12 aa]	0.696 ± 0.011	0.757 ± 0.069
ILDDTRQALGNT [PCL8 C-terminal 12 aa]	0.703 ± 0.034	0.737 ± 0.013
NILFVMKEGRIY [YJL213W C-terminal 12 aa]	0.681 ± 0.016	0.711 ± 0.056
